Experimental findings from paper PMC4421837 are described below.

The target in test [1] is K18-ΔK280, labelled with AlexaFluor-488 or AlexaFluor-647. The test is described as follows: FRET or BRET; single-molecule FRET of oligomers during aggregation: equimolar A488- and A647-labelled construct, 10 uM in all, 50 mM ammonium acetate pH 7.0, 37 °C, undisturbed, heparin (MW 3000) at 1:4 molar ratio; aliquots diluted 50,000-fold into the same buffer with 0.1 mg/ml BSA and 2.5 uM heparin, measured under flow in a microfluidic channel; bursts in the acceptor channel counted as oligomers.

The target in test [2] is K18-P301L, labelled with AlexaFluor-488 or AlexaFluor-647. The description is as above.
Test [3] concerns the target K18 tau construct (K18-C291A/C322A/I260C), labelled with AlexaFluor-488 or AlexaFluor-647. The test is described as follows: FRET or BRET; single-molecule FRET of species released from washed A488/A647-K18 filaments: pellet washed four times, fresh 50 mM ammonium acetate pH 7.0 added; aliquots diluted into the same buffer and measured on BSA-treated slides, no flow.
Test [4] shares this target. Description: FRET or BRET; single-molecule FRET of oligomers during aggregation: equimolar A488- and A647-labelled construct, 10 uM in all, 50 mM ammonium acetate pH 7.0, 37 °C, undisturbed, heparin (MW 3000) at 1:4 molar ratio; aliquots diluted 50,000-fold into the same buffer with 0.1 mg/ml BSA and 2.5 uM heparin, measured under flow in a microfluidic channel; bursts in the acceptor channel counted as oligomers.

Values joined by “and” are separate entries in the source; they are usually repeats but may differ in a detail not shown here. Identical values can stand only once.

In the case of “K18-ΔK280, labelled with AlexaFluor-488 or AlexaFluor-647 (domain or fragment)”, in test [1], the fold more oligomers at peak than for K18 is 50 fold and the percent of detected species that are oligomers (at peak, 0.5 h) was 4%.

Turning to “K18-P301L, labelled with AlexaFluor-488 or AlexaFluor-647 (domain or fragment)”, the peak oligomer concentration relative to K18-wt in test [2] is 4 fold and 3 fold.

As for “K18 tau construct (K18-C291A/C322A/I260C), labelled with AlexaFluor-488 or AlexaFluor-647 (domain or fragment)”, the percent of soluble tau that is oligomeric (immediately after dilution of filaments) in test [3] was in the range of 0.6 to 3%. Also, in test [4], the oligomer concentration (typical) is 5 nM and the percent of detected soluble species that are oligomers (after 0.5 h) was found to be 0.1%.
